According to the Immune Epitope Database (IEDB):

Columns and labels:
[1] = biological target: HLA-A*02:01; assay: IEDB peptide-MHC binding, purified MHC/direct/fluorescence; filed as Kd, often an IC50 or EC50 that approximates it; ≥ and ≤ were set here for values at or beyond the usual limits of such assays; settings: source organism: Homo sapiens
[2] = biological target: HLA-A*25:01; assay: IEDB peptide-MHC binding, purified MHC/competitive/fluorescence; filed as Kd, often an IC50 or EC50 that approximates it; ≥ and ≤ were set here for values at or beyond the usual limits of such assays; settings: source organism: Homo sapiens
[3] = biological target: HLA-A*26:01; assay: as above
[4] = biological target: HLA-A*80:01; assay: as above; settings: source organism: Homo sapiens
[5] = biological target: HLA-B*15:01; assay: as above
[6] = biological target: HLA-B*15:17; assay: as above
[7] = biological target: HLA-B*18:01; assay: as above
[8] = biological target: HLA-B*27:03; assay: as above
[9] = biological target: HLA-B*46:01; assay: as above
[10] = biological target: HLA-B*51:01; assay: as above
[11] = biological target: HLA-B*57:01; assay: as above
[12] = biological target: HLA-A*02:01; assay: as above; settings: source organism: Campylobacter jejuni subsp. jejuni NCTC 11168 = ATCC 700819
[13] = biological target: HLA-A*02:03; assay: as above; settings: source organism: Campylobacter jejuni subsp. jejuni NCTC 11168 = ATCC 700819
[14] = biological target: HLA-A*02:11; assay: as above; settings: source organism: Campylobacter jejuni subsp. jejuni NCTC 11168 = ATCC 700819
[15] = biological target: HLA-A*02:12; assay: as above; settings: source organism: Campylobacter jejuni subsp. jejuni NCTC 11168 = ATCC 700819
[16] = biological target: HLA-A*02:16; assay: as above; settings: source organism: Campylobacter jejuni subsp. jejuni NCTC 11168 = ATCC 700819
[17] = biological target: HLA-A*02:19; assay: as above; settings: source organism: Campylobacter jejuni subsp. jejuni NCTC 11168 = ATCC 700819
[18] = biological target: HLA-A*03:01; assay: as above; settings: source organism: Campylobacter jejuni subsp. jejuni NCTC 11168 = ATCC 700819
[19] = biological target: HLA-A*23:01; assay: as above; settings: source organism: Campylobacter jejuni subsp. jejuni NCTC 11168 = ATCC 700819
[20] = biological target: HLA-A*24:03; assay: as above; settings: source organism: Campylobacter jejuni subsp. jejuni NCTC 11168 = ATCC 700819
[21] = biological target: HLA-A*29:02; assay: as above; settings: source organism: Campylobacter jejuni subsp. jejuni NCTC 11168 = ATCC 700819
[22] = biological target: HLA-A*68:02; assay: as above; settings: source organism: Campylobacter jejuni subsp. jejuni NCTC 11168 = ATCC 700819
[23] = biological target: HLA-A*69:01; assay: as above; settings: source organism: Campylobacter jejuni subsp. jejuni NCTC 11168 = ATCC 700819
[24] = biological target: HLA-B*39:01; assay: as above; settings: source organism: Campylobacter jejuni subsp. jejuni NCTC 11168 = ATCC 700819
[25] = biological target: HLA-A*01:01; assay: IEDB peptide-MHC binding, purified MHC/competitive/fluorescence; ≥ and ≤ were set here for values at or beyond the usual limits of such assays; settings: source organism: Monodelphis domestica
[26] = biological target: HLA-A*02:01; assay: as above; settings: source organism: Monodelphis domestica
[27] = biological target: HLA-A*03:01; assay: as above; settings: source organism: Monodelphis domestica
[28] = biological target: HLA-A*11:01; assay: as above; settings: source organism: Monodelphis domestica
[29] = biological target: HLA-A*24:02; assay: as above; settings: source organism: Monodelphis domestica
[30] = biological target: HLA-A*25:01; assay: as above; settings: source organism: Monodelphis domestica
[31] = biological target: HLA-A*29:02; assay: as above; settings: source organism: Monodelphis domestica
[32] = biological target: HLA-A*31:01; assay: as above; settings: source organism: Monodelphis domestica
[33] = biological target: HLA-A*68:02; assay: as above; settings: source organism: Monodelphis domestica
[34] = biological target: HLA-B*07:02; assay: as above; settings: source organism: Monodelphis domestica
[35] = biological target: HLA-B*08:01; assay: as above; settings: source organism: Monodelphis domestica
[36] = biological target: HLA-B*14:02; assay: as above; settings: source organism: Monodelphis domestica
[37] = biological target: HLA-B*18:01; assay: as above; settings: source organism: Monodelphis domestica
[38] = biological target: HLA-B*35:01; assay: as above; settings: source organism: Monodelphis domestica
[39] = biological target: HLA-B*37:01; assay: as above; settings: source organism: Monodelphis domestica
[40] = biological target: HLA-B*40:02; assay: as above; settings: source organism: Monodelphis domestica
[41] = biological target: HLA-B*44:03; assay: as above; settings: source organism: Monodelphis domestica
[42] = biological target: HLA-B*51:01; assay: as above; settings: source organism: Monodelphis domestica
[43] = biological target: HLA-B*53:01; assay: as above; settings: source organism: Monodelphis domestica
[44] = biological target: HLA-B*58:01; assay: as above; settings: source organism: Monodelphis domestica
[45] = biological target: HLA-B*58:01; assay: IEDB peptide-MHC binding, cellular MHC/competitive/fluorescence; ≥ and ≤ were set here for values at or beyond the usual limits of such assays; settings: source organism: Human herpesvirus 4 strain B95-8
[46] = biological target: HLA-A*03:01; assay: IEDB peptide-MHC binding, purified MHC/direct/fluorescence; filed as Kd, often an IC50 or EC50 that approximates it; ≥ and ≤ were set here for values at or beyond the usual limits of such assays; settings: source organism: Cryptosporidium parvum Iowa II
[47] = biological target: HLA-A*25:01; assay: as above; settings: source organism: Cryptosporidium parvum Iowa II
[48] = biological target: HLA-A*26:01; assay: as above; settings: source organism: Cryptosporidium parvum Iowa II
[49] = biological target: HLA-A*80:01; assay: as above; settings: source organism: Cryptosporidium parvum Iowa II
[50] = biological target: HLA-B*15:17; assay: as above; settings: source organism: Cryptosporidium parvum Iowa II
[51] = biological target: HLA-B*18:01; assay: as above; settings: source organism: Cryptosporidium parvum Iowa II
[52] = biological target: HLA-B*46:01; assay: as above; settings: source organism: Cryptosporidium parvum Iowa II
[53] = source organism: Campylobacter jejuni subsp. jejuni NCTC 11168 = ATCC 700819

HLLCQAFSV
Kd [1]: 0.0002 µM
Kd [2]: ≥ 20 µM
Kd ([3]; source organism: Homo sapiens): ≥ 20 µM
Kd [4]: ≥ 20 µM
Kd ([5]; source organism: Homo sapiens): ≥ 20 µM
Kd ([6]; source organism: Homo sapiens): ≥ 20 µM
Kd ([7]; source organism: Homo sapiens): ≥ 20 µM
Kd ([8]; source organism: Homo sapiens): ≥ 20 µM
Kd ([9]; source organism: Homo sapiens): ≥ 20 µM
Kd ([10]; source organism: Homo sapiens): ≥ 20 µM
Kd ([11]; source organism: Homo sapiens): ≥ 20 µM

LELAEITAE
Kd [12]: ≥ 20 µM
Kd [13]: ≥ 20 µM
Kd [14]: ≥ 20 µM
Kd [15]: ≥ 20 µM
Kd [16]: ≥ 20 µM
Kd [17]: ≥ 20 µM
Kd [18]: ≥ 20 µM
Kd [19]: ≥ 20 µM
Kd [20]: ≥ 20 µM
Kd [3, 53]: ≥ 20 µM
Kd [21]: ≥ 20 µM
Kd [22]: ≥ 20 µM
Kd [23]: ≥ 20 µM
Kd [5, 53]: ≥ 20 µM
Kd [6, 53]: ≥ 20 µM
Kd [7, 53]: 0.511 µM
Kd [8, 53]: ≥ 20 µM
Kd [24]: ≥ 20 µM
Kd [9, 53]: ≥ 20 µM
Kd [10, 53]: ≥ 20 µM
Kd [11, 53]: ≥ 20 µM

LEYFQFVKKLL
IC50 [25]: ≥ 20 µM
IC50 [26]: ≥ 20 µM
IC50 [27]: ≥ 20 µM
IC50 [28]: ≥ 20 µM
IC50 [29]: ≥ 20 µM
IC50 [30]: ≥ 20 µM
IC50 [31]: ≥ 20 µM
IC50 [32]: ≥ 20 µM
IC50 [33]: ≥ 20 µM
IC50 [34]: ≥ 20 µM
IC50 [35]: 2.4 µM
IC50 [36]: ≥ 20 µM
IC50 [37]: 4.72 µM
IC50 [38]: ≥ 20 µM
IC50 [39]: ≥ 20 µM
IC50 [40]: 0.126 µM
IC50 [41]: ≥ 20 µM
IC50 [42]: ≥ 20 µM
IC50 [43]: ≥ 20 µM
IC50 [44]: ≥ 20 µM

NAAEPEQPW
IC50 [45]: 5 µM

RAIMTTWTV
Kd [46]: ≥ 20 µM
Kd [47]: ≥ 20 µM
Kd [48]: ≥ 20 µM
Kd [49]: ≥ 20 µM
Kd [50]: 0.06 µM
Kd [51]: ≥ 20 µM
Kd [52]: ≥ 20 µM
